Results: IntAct's records for PubMed 19446522

B1: "Na(+)/H(+) exchange regulatory cofactor NHE-RF1" (Homo sapiens), O14745 (parent)
chain: MSADAAAGAPLPRLCCLEKGPNGYGFHLHGEKGKLGQYIRLVEPGSPAEKAGLLAGDRLVEVNGENVEKETHQQVVSRIRAALNAVRLLVVDPETDEQLQKLGVQVREELLRAQEAPGQAEPPAAAEVQGAGNENEPREADKSHPEQRELRPRLCTMKKGPSGYGFNLHSDKSKPGQFIRSVDPDSPAEASGLRAQDRIVEVNGVCMEGKQHGDVVSAIRAGGDETKLLVVDRETDEFFKKCRVIPSQEHLNGPLPVPFTNGEIQKENSREALAEAALESPRPALVRSASSDTSEELNSQDSPPKQDSTAPSSTSSSDPILDFNISLAMAKERAHQKRSSKRAPQMDWSKKNELFSNL

Variants of: B1
Settings: with CFTR

Row | effect of a mutation on the interaction | Variant
1 | decreasing interaction | E353A
